Results from the RNAGym collection of RNA variant scans (doi:10.1073/pnas.2313332121).
Fewer inactive variants are shown than the library holds.

B1: TPR 5TU (parent)
chain: GGAUCUUCUCGAUCUAACAAAAAAGACAAAUCUGCCACAAAGCUUGAGAGCAUCUUCGGAUGCAGAGGCGGCAGCCUUCGGUGGCGCGAUAGCGCCAACGUUCUCAACUAUGACACGCAAAACGCGUGCUCCGUUGAAUGGAGUUUAUCAUG

Variants of: B1
Assay: polymerase ribozyme fitness, log enrichment relative to wild type (log ratio); higher = more active; in vitro selection for triplet polymerase activity
Outline: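 Frozen incubation at −7 °C formed the core of a single, triplicate in vitro selection round applied to PCR-built, transcribed mutant libraries of each subunit of a heterodimeric triplet polymerase ribozyme. Extended constructs were gel-excised, captured with streptavidin beads and amplified by RT-PCR, and input and output libraries were Illumina-sequenced with a filter of ≥10 input reads and ≥1 read per output. Fitness is the logarithm of genotype enrichment relative to wild-type enrichment, with inverse-variance-weighted replicate averaging, and the logarithm is base 2.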

Row | Variant | polymerase ribozyme fitness (log ratio)
1 | GGAUCUUCUCGAGCUAACAAAAAAGACAAAUCGGCCACAAAGCUUGAGAGCAUUUUCGGAUGCAGAGGCGGCAGCCUUCGGUGGCGCGAUAGCGCCAACGUUCUCAACUAUGACACGCAAAACGCGUGCUCCGUUGAAUGGAGUUUAUCAUG [U13G U33G C54U] | ≤ -4.2
2 | GGAUCUUCUCGAGCUAACAAAAAAGACAAAUCUGCCACAAAGCUUGAAAGCAUCUUCGGAUGCAGAGGCGGCAGCCUUCGGUGGCGCGAUAGAGCCAACGUUCUCAACUAUGACACGCAAAACGGGUGCUCCGUUGAAUGGAGUUUAUCAUG [U13G G48A C93A C125G] | ≤ -4.2
3 | GGAUCUUCUCGAGCUAACAAAAAAGACAAAUCUGCCACAAAGCUUGAGAGCAUCUUCGUAUGCAGAGGCGGCAGCCUUCGGUGGCGCGAUAGCGCUAACGUUCUCAACUAUGACACGCAAAACGCGUGCUCCGUUGAAUGGAGUUUAUCAUG [U13G G59U C96U] | -0.998
4 | GGAUCUUCUCGAGCUAACAAAAAAAACAAAUCUGCCACAAAGCUUGAGAGCAUCUUCGGAUGCAGAGGCGGCAGCCUUCGGUAGCGCGAUAGCGCCAACGUUCUCAACUAUGACACGCAAAACGCGUGCUCCGUUGAAUGGAGUUUAUCAUG [U13G G25A G83A] | -4.07
5 | GGAUCUUCUCGAGCUAACAAAAAAGACAAAUCUGCCUCAAAGCUUGAGAGCAUCAUAGGAUGCAGAGGCGGCAGCUUUCGGUGGCACGAUAGCGCCAACGUUCUCAACUAUGACACGCAAAACGCGCGCUCCGUUGAAUGGAGUUUAUCAUG [U13G A37U U55A C57A C76U G86A U127C] | ≤ -4.2
6 | GGAUCUUCUCGAGCUAACAAAAAAGAAAAAUCUGCUACACAGCUUGAGAGCAUCUUCGGGUGCAGAGGCGGCAGCCUUCGGUGGCGCGAUAGCGCCAACGUUCUCAACUAUGACACGCAAAACGCGUGCUCCGUUGAGUGGAGUUUAUCAUG [U13G C27A C36U A40C A60G A138G] | ≤ -4.2
7 | GGAUCUUCUCGAGCUAACAAAAAAGACAAAUCUGCCACAAAGCUUGAGAGCCUCUUCGGAUGCAGAGGCGGCAGCCUUCGGUGGGUCGAUAGCGCCAACGUUCUCAACUAUGACACGCAAAACGCGUGGUCCGUUGAAUGGAGUUUAUCAUG [U13G A52C C85G G86U C129G] | ≤ -4.2
8 | GGAUCUUCUCGAGCAAACAAAAAAGACAAAUCUGCCACAAAGCUUGAGAGUAUCUUCGGAUGCAGAGGCGGCAGCCUUCGGUGGCGCGAUAGCGCAAACGUUCUCAACUAUGACACGCAAGACGCGUGCUCCGUUGAAUGGAGUUUAUCAUG [U13G U15A C51U C96A A121G] | -2.76
9 | GGAUCUUCUCGAGCUAACAAAAAAGACAAAUCUGCAACAAAGCUUGAGAGCAUCUUCGGAUGCAGAGGCGGCAGCCUUCGGUUGCGCGAUAGCGCCAAAGUUCUCAACUAUGACACGCAAAACGCGUGCUCCGUUGAAUUGAGUUUAUCAUG [U13G C36A G83U C99A G140U] | -4
10 | GGAUCUUCUCGAGCUAACAAAAAAGAGAAAUCUGCCACAAAGCUUGAGAGAAUCUUCGGAUGCAGAGGCGGCAGCCUUCGGUGCCGCGAUAGCGCCAACGUUCUCAACUAUGACACGCAAAACGCGUGCUCCGUUGAAUGGGGUUUCUCAUG [U13G C27G C51A G84C A142G A147C] | ≤ -4.2
11 | GGAUCUUCUCGAGCUAACAAAAAAGACAAAUCUGCCACCAAGCUUGAGAGCAUCUUCGGAUACAGAGGCGGCAGCCUUCGGUGGCGCGAUAGCGCCAACGUUCUCAUCUAUGACACGCAAAACGCGUGCUCCGUUGAAAGGUGUUUAUCAUG [U13G A39C G62A A107U U139A A142U] | ≤ -4.2
12 | GGAUCUUCUCGAGCUAACAAAAAAGACAAAUCUGCCACAAAGCUUGAGAGCAUCUUCGGAUGCAGAGGCGGCAGCCUUAGGUGGCGCGAUAGCGCCAACGUUUUCAACUAUGACACGCAAAACGCGUGCUCCGUUGAAUGGAGUUUAUCAUG [U13G C79A C103U] | ≤ -4.2
13 | GGAUCUUCUCGAGCUAACAAAAAAGACAAAUCUGCCACAAAGCUUGAGAGCAUCUUCGGAUGCAGAGGCGGCAGCAUUCGGUGGCGCGAUAGCGCCAACGUUCUCAACUAUGACACGCAAAACGCGUGCUCCGUUGAAUGGAGUUUAUCAUG [U13G C76A] | -2.11
14 | GGAUCUUCUCGAGCUAACAAAAAAGACAAACCUGCCACAGAGCUUGAGAGCAUCUUCUGAUGCAGAGGCGGCAGCCUCCGGUGGGGCGAUAGCGCCAACGUUCUCAACUAUGAUACGCAAAACGCGUGCUCCGUUGAAUGUAGUUUAUCAUG [U13G U31C A40G G58U U78C C85G C114U G141U] | ≤ -4.2
15 | GGAUCUUCUCGAGCUAACAAAAAAGACAAAUCUGCCACAAAGCUUGAGAGCAUCUUCGGAUGCAGAGGCGGCAGCCUUCGGUGGCGCGAUAGCGCGAACGUUCUCAACUAUGACACGCAGAACGCGUGCUCCGUUGAAUGGAGUUUAUCAUG [U13G C96G A120G] | -1.51
16 | GGAUCUUCUCGAGCUAACAAAAAAGACAAAUCUGCCACAAAACUUGAGAGCAUCUGCGGAUGCAGAGGCGGCAGCCUUCGGUGGCUCGAUAGCGCCAACGUUCUCAACUAUGACACGCAAAACGCGUGCUCCCUUGAAUGGAUUUCAUCAUG [U13G G42A U56G G86U G133C G143U U146C] | ≤ -4.2
17 | GGAUCUUCUCGAGCUAACAAAAAAGACAAAUCUGCCACAAAGCUUGAGAGCAUCUUCGGAUGCAGAGGCGGCAGCCUUCGGUGGUGCGAUAGCGCCAACGUUCUCGACUAUGACACGCAAAACGCUUGCUCCGUUGAAUCGAGUUUAUCAUG [U13G C85U A106G G126U G140C] | -3.96
18 | GGAUCUUCUCGAGCUAACAAAAAAGACAAAUCUGCCACAAAGCUUGAGAGCAUCUUCGGAUGCAGAGGCGGCAGCCUUCGGUGUCGCGAUAGCGCCAACGUUCUCAACUAUGACACGCAAAACGCGUGCUCCGUUGAAUGGAGUUUAUCAUG [U13G G84U] | -3.13
19 | GGAUCUUCUCGAGCUAACAAAAAAGACAAAUCUGCCACAAAGCUUGAGAGCAUCUUCGGAUGCAGAGGCGGCAGCCUUCGGUCGCGCGAUAGCGCCAACGUUCUCAACUAUGACACGCAAAACGCGUGCUCCGUUGAAUGGAGUCUAUCAUG [U13G G83C U145C] | -3.39
